Data published in patent publication US20250019439A1 (Adimab, published 2025).

Assays:
[1] = molecular target: T1, CTL-62227; assay: SPR Carterra, yeast anti-ID
T1 construct: also called odronextamab
Experimental: (§1) Kinetic analysis was conducted at 25° C. in an HBSTE running buffer system (Carterra Cat #3630) using a Carterra LSA (Carterra USA, Salt Lake City, UT). The sample compartment was maintained at 20° C. for the duration of each experiment.
(§2) For antibody capture experiments, a goat anti-human Fc antibody (Jackson ImmunoResearch) was covalently coupled to an HC30M sensor chip surface via standard amine coupling (1:1 EDC:NHS) and then blocked with ethanolamine (1.0 M, pH 8.5). Covalent coupling steps were performed in 25 mM MES buffer (Carterra, Cat #3625) plus 0.05% Tween20. The anti-CD3 antibodies (100 nM in running buffer) were flowed over discrete regions of interest on the chip surface for 5 minutes. […] Dissociation of the anti-idiotype antibodies was monitored for 300s. Several blank buffer samples were injected over the entire chip surface at the start of each non-regenerative kinetic cycle. The preceding blank buffer injection was used for blank surface subtraction. At the end of each non-regenerative kinetic cycle, all surfaces were regenerated via two 30s injections of 10 mM glycine, pH 1.7.
(§3) For data processing and fitting, sensorgrams were double reference subtracted with a baseline drift correction of 4 RU. Sensorgrams were y-aligned and baseline corrected, filtered and cropped to include only the association and dissociation steps. Data was fitted to a 1:1 binding model using Carterra Kinetics Data Analysis software version 1.7.1.3055.

[2] = molecular target: T2, CTL-62228; assay: SPR Carterra, yeast anti-ID
T2 construct: also called glofitamab
Experimental: as §1, §2, §3

[3] = molecular target: T3, CTL-62240; assay: SPR Carterra, yeast anti-ID
T3 construct: also called ONO-4685
T3 sequence (VH, as listed by the source, chain 1 of 2): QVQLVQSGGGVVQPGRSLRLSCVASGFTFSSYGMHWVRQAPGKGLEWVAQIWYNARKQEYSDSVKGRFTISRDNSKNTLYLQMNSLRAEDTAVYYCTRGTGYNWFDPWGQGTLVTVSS
T3 sequence (VL, as listed by the source, chain 2 of 2): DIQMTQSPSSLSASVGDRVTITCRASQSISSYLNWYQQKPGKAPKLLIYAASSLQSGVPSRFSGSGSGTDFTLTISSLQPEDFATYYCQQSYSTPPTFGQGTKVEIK
Experimental: as §1, §2, §3

[4] = molecular target: T4, ADI-50024; assay: SPR Carterra avidity, yeast anti-ID
T4 construct: anti-CD3 antibody made in CHO cells, captured by anti-human Fc
T4 sequence (VH, as listed by the source limits assumed, chain 1 of 2): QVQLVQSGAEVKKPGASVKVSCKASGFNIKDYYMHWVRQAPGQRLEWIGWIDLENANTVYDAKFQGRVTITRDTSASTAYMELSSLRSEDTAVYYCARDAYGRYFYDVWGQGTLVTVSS
T4 sequence (VL, as listed by the source limits assumed, chain 2 of 2): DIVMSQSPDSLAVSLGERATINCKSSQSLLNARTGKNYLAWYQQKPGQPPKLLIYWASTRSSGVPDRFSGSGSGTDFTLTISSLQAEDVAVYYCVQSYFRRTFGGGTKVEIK
Experimental: as §1, §2, §3

[5] = molecular target: T5, ADI-70326; assay: SPR Carterra avidity, yeast anti-ID
T5 construct: anti-CD3 antibody made in CHO cells, captured by anti-human Fc
T5 sequence (VH, as listed by the source limits assumed, chain 1 of 2): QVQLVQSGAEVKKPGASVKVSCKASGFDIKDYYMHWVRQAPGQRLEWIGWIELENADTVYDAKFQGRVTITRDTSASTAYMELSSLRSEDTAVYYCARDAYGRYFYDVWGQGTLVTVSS
Experimental: as §1, §2, §3

[6] = molecular target: T6, ADI-70327; assay: SPR Carterra avidity, yeast anti-ID
T6 construct: anti-CD3 antibody made in CHO cells, captured by anti-human Fc
Experimental: as §1, §2, §3

[7] = molecular target: T7, ADI-70330; assay: SPR Carterra avidity, yeast anti-ID
T7 construct: anti-CD3 antibody made in CHO cells, captured by anti-human Fc
T7 sequence (VH, as listed by the source limits assumed, chain 1 of 2): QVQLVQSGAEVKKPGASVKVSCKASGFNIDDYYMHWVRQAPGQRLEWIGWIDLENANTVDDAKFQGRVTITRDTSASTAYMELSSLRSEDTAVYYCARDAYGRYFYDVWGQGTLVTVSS
Experimental: as §1, §2, §3

[8] = molecular target: T8, ADI-26906 IgG; assay: SPR Carterra avidity, yeast anti-ID
T8 construct: anti-CD3 IgG
T8 sequence (VH, as listed by the source limits assumed, chain 1 of 2): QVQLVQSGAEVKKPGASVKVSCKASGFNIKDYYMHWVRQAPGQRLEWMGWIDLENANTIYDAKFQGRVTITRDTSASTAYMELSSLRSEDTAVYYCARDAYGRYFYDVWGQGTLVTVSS
T8 sequence (VL, as listed by the source limits assumed, chain 2 of 2): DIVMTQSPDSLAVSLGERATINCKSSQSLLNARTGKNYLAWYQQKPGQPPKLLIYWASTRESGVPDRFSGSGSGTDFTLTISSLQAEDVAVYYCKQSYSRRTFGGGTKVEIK
Experimental: as §1, §2, §3

[9] = molecular target: T9, ADI-67450; assay: SPR Carterra avidity, yeast anti-ID
T9 construct: anti-CD3 antibody made in CHO cells, captured by anti-human Fc
T9 sequence (VH, as listed by the source limits assumed, chain 1 of 2): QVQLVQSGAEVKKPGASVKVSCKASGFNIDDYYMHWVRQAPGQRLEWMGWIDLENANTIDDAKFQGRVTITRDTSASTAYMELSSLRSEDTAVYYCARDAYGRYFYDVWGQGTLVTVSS
Experimental: as §1, §2, §3

[10] = molecular target: T10, ADI-67445; assay: SPR Carterra avidity, yeast anti-ID
T10 construct: anti-CD3 antibody made in CHO cells, captured by anti-human Fc
Experimental: as §1, §2, §3

[11] = molecular target: T11, ADI-26909; assay: SPR Carterra avidity, yeast anti-ID
T11 construct: anti-CD3 antibody made in CHO cells, captured by anti-human Fc
T11 sequence (VH, as listed by the source limits assumed, chain 1 of 2): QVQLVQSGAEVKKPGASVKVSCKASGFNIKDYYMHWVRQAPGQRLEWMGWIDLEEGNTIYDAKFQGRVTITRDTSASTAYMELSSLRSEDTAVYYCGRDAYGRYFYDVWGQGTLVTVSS
Experimental: as §1, §2, §3

[12] = molecular target: T12, ADI-26913 IgG; assay: SPR Carterra avidity, yeast anti-ID
T12 construct: anti-CD3 IgG
T12 sequence (VH, as listed by the source limits assumed, chain 1 of 2): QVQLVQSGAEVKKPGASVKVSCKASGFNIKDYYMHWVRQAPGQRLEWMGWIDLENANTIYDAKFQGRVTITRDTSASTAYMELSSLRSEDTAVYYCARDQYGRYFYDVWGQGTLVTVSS
Experimental: as §1, §2, §3

[13] = molecular target: T13, ADI-26919; assay: SPR Carterra avidity, yeast anti-ID
T13 construct: anti-CD3 antibody made in CHO cells, captured by anti-human Fc
T13 sequence (VL, as listed by the source limits assumed, chain 2 of 2): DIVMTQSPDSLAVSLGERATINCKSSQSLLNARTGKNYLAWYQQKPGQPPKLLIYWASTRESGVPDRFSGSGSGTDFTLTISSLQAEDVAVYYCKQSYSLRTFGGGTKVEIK
Experimental: as §1, §2, §3

[14] = molecular target: T14, ADI-26921 IgG; assay: SPR Carterra avidity, yeast anti-ID
T14 construct: anti-CD3 IgG
Experimental: as §1, §2, §3

[15] = molecular target: T15, ADI-26916 IgG; assay: SPR Carterra avidity, yeast anti-ID
T15 construct: anti-CD3 IgG
Experimental: as §1, §2, §3

[16] = molecular target: T16, ADI-26943; assay: SPR Carterra avidity, yeast anti-ID
T16 construct: anti-CD3 antibody made in CHO cells, captured by anti-human Fc
Experimental: as §1, §2, §3

[17] = molecular target: T17, ADI-48576; assay: SPR Carterra avidity, yeast anti-ID
T17 construct: pH-dependent anti-CD3 antibody made in CHO cells
Experimental: as §1, §2, §3

[18] = molecular target: T18, ADI-48587; assay: SPR Carterra avidity, yeast anti-ID
T18 construct: pH-dependent anti-CD3 antibody made in CHO cells
T18 sequence (VH, as listed by the source, chain 1 of 2): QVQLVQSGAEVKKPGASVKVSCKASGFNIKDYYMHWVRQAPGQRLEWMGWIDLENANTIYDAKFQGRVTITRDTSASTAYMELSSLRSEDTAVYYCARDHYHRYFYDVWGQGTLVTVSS
T18 sequence (VL, as listed by the source, chain 2 of 2): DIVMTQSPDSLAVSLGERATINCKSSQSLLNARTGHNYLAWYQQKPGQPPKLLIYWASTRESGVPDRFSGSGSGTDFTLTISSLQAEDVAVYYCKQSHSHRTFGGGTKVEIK
Experimental: as §1, §2, §3

[19] = molecular target: T19, ADI-48592; assay: SPR Carterra avidity, yeast anti-ID
T19 construct: pH-dependent anti-CD3 antibody made in CHO cells
Experimental: as §1, §2, §3

[20] = molecular target: T20, ADI-48650; assay: SPR Carterra avidity, yeast anti-ID
T20 construct: pH-dependent anti-CD3 antibody made in CHO cells
Experimental: as §1, §2, §3

[21] = molecular target: T21, ADI-74965; assay: SPR Carterra avidity, yeast anti-ID
T21 construct: pH-dependent anti-CD3 antibody made in CHO cells
Experimental: as §1, §2, §3

[22] = molecular target: T22, ADI-74966; assay: SPR Carterra avidity, yeast anti-ID
T22 construct: pH-dependent anti-CD3 antibody made in CHO cells
T22 sequence (VL, as listed by the source, chain 2 of 2): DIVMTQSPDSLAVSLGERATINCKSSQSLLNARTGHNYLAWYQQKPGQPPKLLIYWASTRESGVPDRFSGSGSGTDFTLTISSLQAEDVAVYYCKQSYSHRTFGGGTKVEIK
Experimental: as §1, §2, §3

[23] = molecular target: T23, ADI-74967; assay: SPR Carterra avidity, yeast anti-ID
T23 construct: pH-dependent anti-CD3 antibody made in CHO cells
T23 sequence (VL, as listed by the source, chain 2 of 2): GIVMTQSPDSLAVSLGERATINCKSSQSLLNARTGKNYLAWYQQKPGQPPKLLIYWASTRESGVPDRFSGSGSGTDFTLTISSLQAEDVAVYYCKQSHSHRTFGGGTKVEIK
Experimental: as §1, §2, §3

[24] = molecular target: T24, ADI-74968; assay: SPR Carterra avidity, yeast anti-ID
T24 construct: pH-dependent anti-CD3 antibody made in CHO cells
Experimental: as §1, §2, §3

[25] = molecular target: T25, ADI-76357; assay: SPR Carterra avidity, yeast anti-ID
T25 construct: anti-CD3 antibody made in CHO cells, captured by anti-human Fc
T25 sequence (VH, as listed by the source, chain 1 of 2): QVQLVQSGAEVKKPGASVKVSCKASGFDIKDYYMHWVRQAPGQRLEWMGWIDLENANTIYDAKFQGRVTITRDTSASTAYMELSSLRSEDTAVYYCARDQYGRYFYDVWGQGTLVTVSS
Experimental: as §1, §2, §3

[26] = molecular target: T26, ADI-76358; assay: SPR Carterra avidity, yeast anti-ID
T26 construct: anti-CD3 antibody made in CHO cells, captured by anti-human Fc
Experimental: as §1, §2, §3

[27] = molecular target: T27, ADI-76359; assay: SPR Carterra avidity, yeast anti-ID
T27 construct: anti-CD3 antibody made in CHO cells, captured by anti-human Fc
Experimental: as §1, §2, §3

[28] = molecular target: T28, ADI-76360; assay: SPR Carterra avidity, yeast anti-ID
T28 construct: anti-CD3 antibody made in CHO cells, captured by anti-human Fc
T28 sequence (VH, as listed by the source, chain 1 of 2): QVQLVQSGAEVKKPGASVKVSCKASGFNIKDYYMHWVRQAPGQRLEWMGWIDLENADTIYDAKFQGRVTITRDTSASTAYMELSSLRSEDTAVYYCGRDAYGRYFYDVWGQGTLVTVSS
Experimental: as §1, §2, §3

[29] = molecular target: T29, ADI-76361; assay: SPR Carterra avidity, yeast anti-ID
T29 construct: anti-CD3 antibody made in CHO cells, captured by anti-human Fc
T29 sequence (VH, as listed by the source, chain 1 of 2): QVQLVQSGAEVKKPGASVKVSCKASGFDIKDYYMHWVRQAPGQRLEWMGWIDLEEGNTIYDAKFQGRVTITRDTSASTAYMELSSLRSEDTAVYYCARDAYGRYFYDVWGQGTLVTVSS
Experimental: as §1, §2, §3

[30] = molecular target: T30, ADI-76362; assay: SPR Carterra avidity, yeast anti-ID
T30 construct: anti-CD3 antibody made in CHO cells, captured by anti-human Fc
Experimental: as §1, §2, §3

[31] = molecular target: T31, CTL-62223; assay: SPR Carterra avidity, yeast anti-ID
T31 construct: also called mosunetuzumab
T31 sequence (VH, as listed by the source, chain 1 of 2): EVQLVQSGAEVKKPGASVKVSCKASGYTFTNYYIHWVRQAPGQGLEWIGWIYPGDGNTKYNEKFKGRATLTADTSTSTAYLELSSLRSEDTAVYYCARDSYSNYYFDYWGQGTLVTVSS
T31 sequence (VL, as listed by the source, chain 2 of 2): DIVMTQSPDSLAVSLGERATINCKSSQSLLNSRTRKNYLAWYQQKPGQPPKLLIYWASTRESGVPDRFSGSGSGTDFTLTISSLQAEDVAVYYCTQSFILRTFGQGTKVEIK
Experimental: as §1, §2, §3

[32] = molecular target: T32, ADI-67447; assay: SPR Carterra avidity, yeast anti-ID, *koff limit
T32 construct: anti-CD3 antibody made in CHO cells, captured by anti-human Fc
Experimental: as §1, §2, §3

[33] = molecular target: T33, ADI-26920 IgG; assay: SPR Carterra avidity, yeast anti-ID, *koff limit
T33 construct: anti-CD3 IgG
Experimental: as §1, §2, §3

[34] = molecular target: T34, ADI-26924; assay: SPR Carterra avidity, yeast anti-ID, *koff limit
T34 construct: anti-CD3 antibody made in CHO cells, captured by anti-human Fc
T34 sequence (VH, as listed by the source, chain 1 of 2): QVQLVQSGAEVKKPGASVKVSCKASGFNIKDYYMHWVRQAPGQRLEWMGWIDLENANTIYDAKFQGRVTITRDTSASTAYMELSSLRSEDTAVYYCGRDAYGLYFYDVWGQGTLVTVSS
Experimental: as §1, §2, §3

T1 sequence (VH, as listed by the source, chain 1 of 2): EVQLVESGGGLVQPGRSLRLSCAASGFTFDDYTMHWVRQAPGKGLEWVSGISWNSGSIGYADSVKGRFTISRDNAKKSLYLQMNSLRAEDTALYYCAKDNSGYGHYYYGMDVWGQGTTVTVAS
T1 sequence (VL, as listed by the source, chain 2 of 2): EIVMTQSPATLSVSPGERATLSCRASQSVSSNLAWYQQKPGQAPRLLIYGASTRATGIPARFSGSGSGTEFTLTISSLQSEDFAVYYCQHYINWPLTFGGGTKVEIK

B1: ADI-34146 (antibody, V domains shown)
VH: EVQLLESGGGLVQPGGSLRLSCAASGFTFSSYAMSWVRQAPGKGLEWVSTISGSGGSTYYADSVKGRFTISRDNSKNTLYLQMNSLRAEDTAVYYCARLGGRRGSGSSYYYYYGMDVWGQGTTVTVSS
VL: not shown
notes: anti-ID IgG
- binding result [1]: no binding (tested: up to 200 nM)
- binding result [2]: no binding (tested: up to 200 nM)
- binding result [3]: no binding (tested: up to 200 nM)
- Kd [4]: 1.1 nM
- Kd [5]: 3.9 nM
- Kd [6]: 1.7 nM
- Kd [7]: 1.2 nM
- Kd [8]: 0.63 nM
- Kd [9]: 1.8 nM
- Kd [10]: 0.93 nM
- Kd [11]: 0.64 nM
- Kd [12]: 0.55 nM
- Kd [13]: 0.35 nM
- Kd [14]: 0.24 nM
- Kd [15]: 1.8 nM
- Kd [16]: 0.87 nM
- Kd [17]: 12 nM
- Kd [18]: 0.79 nM
- Kd [19]: 16 nM
- Kd [20]: 3.3 nM
- Kd [21]: 0.75 nM
- Kd [22]: 0.86 nM
- Kd [23]: 0.5 nM
- Kd [24]: 0.41 nM
- Kd [25]: 0.54 nM
- Kd [26]: 2.9 nM
- Kd [27]: 0.39 nM
- Kd [28]: 0.57 nM
- Kd [29]: 0.24 nM
- Kd [30]: 1.4 nM
- Kd [31]: 4.5 nM
- Kd [32]: 0.35 nM
- Kd [33]: 0.29 nM
- Kd [34]: 0.25 nM
